The results in this text go back to US20260098093A1 (HUMMINGBIRD BIOSCIENCE PTE, published 2026).

Assay [1] deals with T1, HIS-tagged human VISTA (human, UniProt Q9H7M9 33-194).
T1 construct: Residues 33-194 are stated only for the protein used in HDXMS (Sino Biological #13482-H08H); also called human VISTA-HIS; not shown: HIS tag
T1 sequence: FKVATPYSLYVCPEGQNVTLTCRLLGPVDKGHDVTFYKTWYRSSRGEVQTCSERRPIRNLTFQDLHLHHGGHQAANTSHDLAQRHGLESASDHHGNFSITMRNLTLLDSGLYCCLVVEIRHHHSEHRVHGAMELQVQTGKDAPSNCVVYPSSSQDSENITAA
The assay can be described thus: BLI (Octet) epitope binning: human VISTA-HIS on anti-Penta-HIS sensor, antibody at 400 nM (concentration from paragraph 696).

Assay [2] concerns the target T2, recombinant human VISTA-Fc protein (R&D #7126-B7) (human, UniProt Q9H7M9 33-194).
T2 construct: Bought protein; also called Fc-tagged human VISTA; not shown: Fc part of a bought fusion protein
T2 sequence: T1 sequence
The assay can be described thus: competition ELISA: plate-bound human VISTA-Fc, competitor LRIG1.HIS at 1 µg/ml. The protocol:
For inhibition assay, 384-well plates were coated with 5 μg/ml of human VISTA-Fc recombinant protein (R&D #7126-B7) diluted in PBS for 24 hrs at 4° C. […] Post incubation, plates were washed three times with TBST and incubated with anti-HIS HRP (Abcam #ab1187) antibody for 1 hr at room temperature followed by three further washes. Colorimetric reactions were developed using standard protocol as described for ELISA above.

Assay [3] has as its target T2, recombinant human VISTA-Fc protein (R&D …). The assay can be described thus: competition ELISA: plate-bound human VISTA-Fc, competitor biotinylated VSIG3-Fc at 24 nM. The protocol:
For the inhibition assay, 384-well plates were coated with 2 μg/ml of human VISTA-Fc recombinant protein (R&D #7126-B7) diluted in PBS for 24 hrs at 4° C. […] Post incubation, plates were washed three times with TBST and incubated with streptavidin HRP (R&D #DY998) antibody for 1 hr at room temperature followed by three further washes. Colorimetric reactions were developed using standard protocol as described for ELISA above.
(In general: In an ELISA, binding on a coated surface is turned into a signal by an enzyme label.)

The next assay deals with B7H1/PDL-1 (human, UniProt Q9NZQ7 19-239, limits assumed). The assay can be described thus: ELISA: plate coated with the named human antigen, 4M2-C12-mIgG2a titrated, absorbance 450 nm.
In the next assay the target is T3, B7H3 (human, UniProt Q5ZPR3 29-461, limits assumed).
T3 construct: also called CD276
T3 sequence (looked up): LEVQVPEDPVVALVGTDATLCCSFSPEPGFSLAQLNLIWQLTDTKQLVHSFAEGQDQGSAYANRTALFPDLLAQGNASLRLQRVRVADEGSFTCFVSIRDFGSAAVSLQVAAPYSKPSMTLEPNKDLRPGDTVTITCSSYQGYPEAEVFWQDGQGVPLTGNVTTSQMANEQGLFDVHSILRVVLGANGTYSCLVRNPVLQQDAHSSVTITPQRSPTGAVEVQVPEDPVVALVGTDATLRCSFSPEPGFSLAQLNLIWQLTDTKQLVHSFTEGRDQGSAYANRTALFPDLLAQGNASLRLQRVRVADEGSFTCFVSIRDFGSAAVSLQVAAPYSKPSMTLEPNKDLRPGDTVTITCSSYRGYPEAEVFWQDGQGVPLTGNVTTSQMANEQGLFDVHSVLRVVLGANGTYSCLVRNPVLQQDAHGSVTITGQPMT
The description is as above.

The target of the next assay is T4, B7H4 (human, UniProt Q7Z7D3 29-258, limits assumed).
T4 construct: also called VTCN1
T4 sequence (looked up): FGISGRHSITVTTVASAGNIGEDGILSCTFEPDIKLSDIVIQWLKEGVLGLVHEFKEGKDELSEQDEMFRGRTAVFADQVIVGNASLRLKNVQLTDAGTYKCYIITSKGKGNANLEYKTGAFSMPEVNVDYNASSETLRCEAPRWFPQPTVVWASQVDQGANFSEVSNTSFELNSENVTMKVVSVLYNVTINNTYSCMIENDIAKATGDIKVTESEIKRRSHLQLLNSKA
Described as above.

A further assay has as its target T5, B7H6 (human, UniProt Q68D85 25-262, limits assumed).
T5 construct: also called NCR3LG1
T5 sequence (looked up): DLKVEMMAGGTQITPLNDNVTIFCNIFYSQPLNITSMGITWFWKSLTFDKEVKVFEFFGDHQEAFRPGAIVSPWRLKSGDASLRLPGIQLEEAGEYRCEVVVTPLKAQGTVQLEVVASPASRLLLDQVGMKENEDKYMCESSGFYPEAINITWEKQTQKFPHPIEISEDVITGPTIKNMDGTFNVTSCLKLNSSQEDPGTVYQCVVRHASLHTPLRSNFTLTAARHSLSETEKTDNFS
Described as above.

A further assay addresses T6, B7H7 (human, UniProt Q9UM44 23-344, limits assumed).
T6 construct: also called HHLA2
T6 sequence (looked up): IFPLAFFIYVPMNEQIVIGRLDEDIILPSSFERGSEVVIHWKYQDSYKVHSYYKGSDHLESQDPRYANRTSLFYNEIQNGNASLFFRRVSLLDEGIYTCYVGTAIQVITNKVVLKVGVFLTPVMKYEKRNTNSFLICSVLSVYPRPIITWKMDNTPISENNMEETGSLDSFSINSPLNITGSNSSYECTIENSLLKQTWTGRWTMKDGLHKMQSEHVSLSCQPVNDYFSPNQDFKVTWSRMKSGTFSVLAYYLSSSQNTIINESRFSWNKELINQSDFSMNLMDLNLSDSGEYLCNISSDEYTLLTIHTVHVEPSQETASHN
The assay is described as above.

Another assay deals with PD-1 (human, UniProt Q15116 25-167, limits assumed). The assay is described as above.
The target in another assay is T7, CTLA-4 (human, UniProt P16410 36-162, limits assumed).
T7 sequence (looked up): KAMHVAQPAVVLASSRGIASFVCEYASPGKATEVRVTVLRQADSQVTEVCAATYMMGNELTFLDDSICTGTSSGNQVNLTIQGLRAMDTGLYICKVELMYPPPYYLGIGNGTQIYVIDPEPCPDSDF
The assay is described as above.

The target in assay [4] is T1, HIS-tagged human VISTA. As to the kind of experiment: ELISA: plate coated with the named human antigen, 4M2-C12-mIgG2a titrated, absorbance 450 nm; tag of the coated VISTA not stated.
Assay [5] addresses T2, recombinant human VISTA-Fc protein (R&D …). As to the kind of experiment: ELISA, VSIG3-Fc on plate-bound human VISTA-Fc.

B1: IGN175A (antibody, human IgG1, kappa, V domains shown)
VH: QVQLQQSGAELMKPGASVKISCKATGYTFSTHWIEWVKQRPGHGLEWIGEILPGSGSTSYNEKFKGKATFTADTSSNTAYMQLSSLTSEDSAVYYCARWLLYYYAMDYWGQGTSVTVSS
VL: DVLMTQTPLSLPVSLGDQASISCRSSQSIVHSNGNTYLEWYLQKPGQSPKLLIYKLSNRFSGVPDRFSGSGSGTDFTLKISRVEAEDLGVYYCFQGSHFPYTFGGGTKLEIKR
Consider B1, for which the binding result with HIS-tagged human VISTA [1] is on record as “binds”.

B2: V4-C26 hIgG4 (antibody)
heavy: not shown
light: EIVLTQSPATLSLSPGERATLSCRASSSVGYIHWYQQKPGQAPRPIIYTTSNRATGIPARFSGSGSGTDNTLTISSLEPEDSAVYYCQQWSSYPPITFGGGTKLEVKRTVAAPSVFIFPPSDEQLKSGTASVVCLLNNFYPREAKVQWKVDNALQSGNSQESVTEQDSKDSTYSLSSTLTLSKADYEKHKVYACEVTHQGLSSPVTKSFNRGEC
notes: Human IgG4 (S228P) / kappa; APC-conjugated in the flow cytometry assays; also called HMBD-002; V4-C26 hIgG4(S228P)
The term IC50 denotes the concentration that inhibits the measured activity by half. With B2, the half-inhibitory concentration (IC50) in assay [2] came out at 3.4 nM; in [3], 0.673 nM.

B3: 4M2-C12-mIgG2a (antibody, V domains shown)
VH: EVKLVESGPGLVKPSQSLSLTCTVTGYSITSDYAWNWIRQFPGNKLEWMGYITYSGNISYNPSLRSRISITRDTSKNQFFLQLNSVTPEDTATYSCARSLYYPWYFDVWGAGTTVTVSS
VL: DIVITQTPAILSTSPGEKVTMTCRASSSVGYIHWYQQKPGSSPKPWIYATSNLASGVPARFSGSGSGTSNSLTITRVEAEDAATYYCQQWSSYPPITFGGGTKLEVKR
notes: also called V4P mIgG2a
The EC50 (read off the curve) is the concentration at which the effect is half-maximal. A low value points to higher potency in that assay. In the case of B3, the binding result in the assay with B7H1/PDL-1, in the assay with B7H3, in the assay with B7H4, in the assay with B7H6, with B7H7 and in the assay with PD-1 was “no binding (tested: about 2e-8 M)” in each case. The binding result with CTLA-4 was “no binding (tested: about 2e-8 M)”. Also, the concentration giving a half-maximal response (EC50 (read off the curve)) with HIS-tagged human VISTA [4] was about 0.2 nM.

B4: recombinant human VSIG3-Fc (Fc fusion, UniProt Q5DX21 23-241, looked up)
chain: LEVSESPGSIQVARGQPAVLPCTFTTSAALINLNVIWMVTPLSNANQPEQVILYQGGQMFDGAPRFHGRVGFTGTMPATNVSIFINNTQLSDTGTYQCLVNNLPDIGGRNIGVTGLTVLVPPSAPHCQIQGSQDIGSDVILLCSSEEGIPRPTYLWEKLDNTLKLPPTATQDQVQGTVTIRNISALSSGLYQCVASNAIGTSTCLLDLQVISPQPRNIG
modifications: biotinylated in the inhibition ELISA (sites not given)
notes: Bought protein; also called VSIG3-Fc (R&D #9229-VS); not shown: Fc part of a bought fusion protein
As usually defined, the EC50 is the concentration needed to bring the measured effect to its halfway point. Take B4: the concentration giving a half-maximal response (EC50) in assay [5] is 24 nM.
